This note sets out measurements from patent US20180371091A1 (JOUNCE THERAPEUTICS, published 2018).

What all share (experiment): BLI (Octet RED96), monovalent, monomeric ICOS; mean ± SEM of 6 experiments
(In general: BLI is a label-free optical method that tracks binding on a fibre tip over time.)

Experiment [1] has as its target T1, monomeric form of rat ICOS (rat, UniProt Q9R1T7 21-145, limits assumed).
T1 sequence: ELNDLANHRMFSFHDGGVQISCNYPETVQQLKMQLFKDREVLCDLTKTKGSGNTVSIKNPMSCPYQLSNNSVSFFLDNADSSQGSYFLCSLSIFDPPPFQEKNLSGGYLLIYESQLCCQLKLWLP
The protocol: (§1) The affinity of a humanized antibody having the variable regions of 37A10S713 for monomeric forms of ICOS from human, cynomolgus monkey and rat was measured by Bio-Layer Interferometry (BLI) technology (ForteBio Octet® RED96) and KD's are shown in Table 5. […] Functionality of binding was confirmed by assessing potency of inducing proliferation of primary CD4+ T cells isolated from each species.

The target of experiment [2] is T2, monovalent, heterodimeric human ICOS-Fc (human).
T2 construct: Make-up of the heterodimer is not described; also called Monomeric hICOS; monomeric form of human ICOS; not shown: The human IgG1 Fc fused to ICOS, and the partner Fc chain of the heterodimer
T2 chain: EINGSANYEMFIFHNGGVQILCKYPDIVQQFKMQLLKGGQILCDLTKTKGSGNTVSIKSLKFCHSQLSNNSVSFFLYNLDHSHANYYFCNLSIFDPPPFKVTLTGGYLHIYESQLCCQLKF
The protocol:
as §1

Experiment [3] addresses T3, monomeric form of cynomolgus monkey ICOS (cynomolgus monkey, UniProt Q9Y6W8 21-140 (human entry), limits assumed).
T3 chain: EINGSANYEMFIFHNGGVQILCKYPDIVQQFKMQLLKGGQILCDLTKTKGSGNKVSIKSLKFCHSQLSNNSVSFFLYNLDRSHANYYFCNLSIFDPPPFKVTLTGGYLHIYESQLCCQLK
The method, then:
as §1

B1: 37A10S713 (antibody, V domains shown)
VH: EVQLVESGGGLVQPGGSLRLSCAASGFTFSDYWMDWVRQAPGKGLVWVSNIDEDGSITEYSPFVKGRFTISRDNAKNTLYLQMNSLRAEDTAVYYCTRWGRFGFDSWGQGTLVTVSS
VL: DIVMTQSPDSLAVSLGERATINCKSSQSLLSGSFNYLTWYQQKPGQPPKLLIFYASTRHTGVPDRFSGSGSGTDFTLTISSLQAEDVAVYYCHHHYNAPPTFGPGTKVDIK
notes: also called humanized antibody having the variable regions of 37A10S713; 37A10S713-hIgG1
In general, Kd refers to the constant that tells how readily two partners part at equilibrium. Consider B1, for which the values for the Kd in experiment [1], in experiment [2] and in experiment [3] were 7.2 nM, 1.5 nM and 0.66 nM, respectively.
